Changes are numbered by the printed parent chain. Values belong to the binder of their own block, whether it stands above or below them.
What was measured:
[1] = molecular target: T1, GDP/GTP carrier Ggc1 (containing the mutation C222S), C-terminal 6xHis-tag (Saccharomyces cerevisiae, C222S (stands in the printed letters)); experiment: AUC + other: diffusion-ordered NMR
T1 chain: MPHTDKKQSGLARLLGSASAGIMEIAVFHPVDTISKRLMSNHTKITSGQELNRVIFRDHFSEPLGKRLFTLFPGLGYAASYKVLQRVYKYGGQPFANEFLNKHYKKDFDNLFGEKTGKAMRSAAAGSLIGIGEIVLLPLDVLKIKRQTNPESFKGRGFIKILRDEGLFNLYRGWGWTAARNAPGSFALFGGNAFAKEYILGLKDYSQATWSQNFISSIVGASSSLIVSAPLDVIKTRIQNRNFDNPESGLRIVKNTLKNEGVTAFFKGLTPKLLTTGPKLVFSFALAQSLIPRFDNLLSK

[2] = molecular target: Aac3(2TM), comprising transmembrane helices 2 and 3 (residues 50-180), N-terminal 6xHis-Tag; experiment: AUC + other: diffusion-ordered NMR
[3] = molecular target: T1, GDP/GTP carrier Ggc1 (containing the …); experiment: SAXS with online Ni-NTA purification
SEC = molecular target: the molecule itself; experiment: SEC
[4] = molecular target: T2, Tim10 V29K (subunit of the mutant complex) (Saccharomyces cerevisiae, UniProt P87108 2-93, V29K); experiment: SEC
T2 sequence (looked up): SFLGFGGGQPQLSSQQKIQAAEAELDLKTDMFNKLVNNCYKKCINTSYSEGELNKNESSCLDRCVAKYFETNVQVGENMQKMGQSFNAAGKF

[5] = molecular target: T3, Tim10 M32K (subunit of the mutant complex) (Saccharomyces cerevisiae, UniProt P87108 2-93, M32K); experiment: SEC
T3 sequence (looked up): T2 sequence (looked up) with K28V, M31K

stoichiometry N [1]: 2 TIM9⋅10 hexamers per precursor protein | stoichiometry N [2]: 1 TIM9⋅10 hexamer per precursor chain | stoichiometry N [3]: 2 TIM9⋅10 hexamers per Ggc1
B1: TIM9⋅10 chaperone complex (hexamer of Tim9 and Tim10), wild type (complex, Saccharomyces cerevisiae)
chain 1: MDALNSKEQQEFQKVVEQKQMKDFMRLYSNLVERCFTDCVNDFTTSKLTNKEQTCIMKCSEKFLKHSERVGQRFQEQNAALGQGLGR
chain 2: GSFLGFGGGQPQLSSQQKIQAAEAELDLVTDMFNKLVNNCYKKCINTSYSEGELNKNESSCLDRCVAKYFETNVQVGENMQKMGQSFNAAGKF

binding result [4]: binds | binding result [5]: binds
B2: Tim9 (individual subunit) (natural protein, Saccharomyces cerevisiae)
chain: B1 chain 1
stoichiometry N (SEC): 2

Source: PMC6242696 (Cell, 2018)
